Entries after “also recorded” stand apart in the source; their conditions may differ. Where no end group is shown, it is not given here.

One assay deals with T1, VEGF165R on 231 cells (Homo sapiens, UniProt O14786).
T1 construct: to 231 cells which express only VEGF165R; endogenous in cells; host or cells: MDA-MB-231 (ATCC)
In words: Inhibition of 125I-VEGF165 binding to MDA-MB-231 (231) cells. As to the method: (§1) FIGS. 3A-3C. Inhibition of ^125I-VEGF165 binding to HUVEC, MDA MB 231 cells, and PAE-KDR cells by GST-EX 7+8. ^125I-VEGF165 (5 ng,/ml) was bound to subconfluent cultures of HUVEC (3A), MDA MB 23 1 cells (3B), and PAE-KDR cells (3C) in 48-well dishes in the presence of increasing amounts of GST-Ex 7+8 (closed 20 square) or control GST protein (open squares). At the end of a 2-h incubation, the cells were washed and lysed, and the cell-associated radioactivity was determined with a γ-counter. The counts obtained are expressed as the percentage of the counts obtained in the presence of PBS without addition of GST or fusion protein.
(§2) Binding and cross-linking experiments using 125I-VEGF165 and 125I-VEGF121 were performed at described previously (Gitay-Goren, et al., J. Biol. Chem., 287, 6003-6096 (1992), Soker, et al., J: Biol. Chem., 271,5761-5767 (1996)). VEGF binding was quantified by measuring the cell-associated radioactivity in a y-counter (Beckman, Gamma 5500). The counts represent the average of three walls. All experiments were repeated at least three times, and similar results were obtained. 125I-VEGF cross-linked complexes were resolved by 6% SDS-PAGE, and the gels were exposed to a phosphor screen and scanned after 24 h by a PhosphorImager (Molecular Dynamics). Subsequently, the gels were exposed to x-ray film.

In assay [1] the target is T2, KDR/Flk-1 on PAE-KDR cells (Homo sapiens, UniProt P35968).
T2 construct: expressed in transfected cells; host or cells: porcine endothelial cells (PAE), gift of Dr. Claesson-Welsh
Put plainly: Inhibition of 125I-VEGF165 binding to PAE-KDR cells. On the set-up: species or system porcine endothelial cells transfected to express KDR/Flk-1. To be noted: 125I-VEGF165 5 ng/ml, FIG. 3C. As to the method: as §1
Human umbilical vein endothelial cells (HUVEC) were obtained from the American Type Culture Collection (ATCC) (Rockville, Md.) and grown on gelatin-coated dishes in M-199 medium containing 20% fetal calf serum (FCS) and a mixture of glutamine, penicillin, and streptomycin (GPS). Basic FGF (1 nglml) was added to the culture medium every other day. Porcine endothelial cells (PAE), parental and transfected to express KDRElk-1 (PAE-KDR), were kindly provided by Dr. Lema Claesson-Welsh and grown in F12 medium containing 10% FCS and GPS as described (Waltenberger, et al., J. Biol. Chem., 269,26988-26995 (1994)). MDAMB-231 (231) cells were obtained from ATCC and grown in Bulbecoo's modified Eagle's medium containing 10% FCS and GPS.
as §2

Assay [2] deals with KDR/Flk-1. In words: Cross-linking of 125I-VEGF165 to KDR/Flk-1 on HUVEC. It is filed as binding, human. The conditions noted are these: 15 ug/ml fusion protein, FIG. 4. As to the method:
(§3) FIG. 4. GST-EX 7+8 fusion protein inhibits cross-linking of ^125I-VEGF165 to ^125I-VEGF165R and to KDR/Flk-1. ^125I-VEGF165 (5 ng/ml) was bound to subconfluent cultures of HUVEC (lanes 1 and 2) and MDA-MB-23 1 cells (lanes 3 and 4) in 6-cm dishes. The binding was carried out in the presence (lanes 2 and 4) or the absence (lanes 1 and 3) of 15 ug/ml GST-Ex 7+8. Heparin (1 ug/ml) was added to each dish. At the end of a 2-h incubation, ^125I-VEGF165 was chemically cross-linked to the cell surface. The cells were lysed, and proteins were resolved by 6% SDS-PAGE. The gel was dried and exposed to x-ray film.
as §2

Assay [3] relates to KDR/Flk-1. In words: Cross-linking of 125I-VEGF121 to KDR/Flk-1 of HUVEC. It is filed as binding, human. To be noted: 15 ug/ml fusion protein, FIG. 8 lane 2. How it is done:
FIG. 8. GST-Ex 7+8 fusion protein inhibits cross-linking of ^125I-VEGF121 to KDR/Flk-1 of HUVEC ^125I-VEGF121 (2˜0 ng/ml) was bound to subconfluent cultures of HUVEC in 6-cm dishes. The binding was carried out in the presence (lane 2) or the absence (lane 1) of 15 ug/ml GST-Ex 7+8. Heparin (1 ug/ml) was added to each dish. At the end of a 2-h incubation, ^125I-VEGF was chemically cross-linked to the cell surface. The cells were lysed, and proteins were resolved by 6% SDS-PAGE. The gel was dried and exposed to x-ray film.
as §2

A further assay has as its target VEGF165R (Homo sapiens, UniProt O14786). Put plainly: Cross-linking of 125I-VEGF165 to VEGF165R on 231 cells. Type of assay: binding. More on the design: to 231 cells which express only VEGF165R; endogenous in cells; host or cells: MDA-MB-231 (ATCC). The conditions noted are these: 15 ug/ml fusion protein, FIG. 4 lane 4. As to the method: as §3, §2
In assay [4] the target is T3, KDR/Flk-1 (Homo sapiens, UniProt P35968). Put plainly: Direct binding/cross-linking of 125I-GST-Ex 7 to HUVEC: KDR/Flk-1. More on the design: HUVEC, which express both KDR/Flk-1 and VEGF165R; endogenous in cells; host or cells: HUVEC (ATCC). To be noted: cross-linking, 1 ug/ml heparin, FIG. 1 lane 3. How it is done:
FIG. 1. Cross-linking of 1 ^125I-VEGF165, ^125I-VEGF121 and ^125I-GST-EX 7 to HUVEC. ^125I-VEGF165 (5 ng/ml) (lane 1) or ^125I-VEGF121 (10 ng/ml) (lane 2) or ^125I-GST-EX 7 (50 nglml) (lane 3) were bound to subconfluent cultures of HUVEC in 6-cm dishes. The binding was carried out in the presence of 1 ug/ml heparin. At the end of a 2-H incubation, each ^125I-VEGF isoform was chemically cross-linked to the cell surface. The cells were lysed and proteins were resolved by 6% SDS-PAGE. The polyacrylamide gel was dried and exposed to x-ray film.
as §2

Assay [5] addresses T3, KDR/Flk-1. Put plainly: Cross-linking of 125I-VEGF165 to KDR/Flk-1 on PAE-KDR cells. The conditions noted are these: data not shown. Type of assay: binding, porcine endothelial cells transfected to express KDR/Flk-1. On the set-up: expressed in transfected cells; host or cells: porcine endothelial cells (PAE), gift of Dr. Claesson-Welsh. As to the method:
as §2

T3 sequence (P35968 20-1356): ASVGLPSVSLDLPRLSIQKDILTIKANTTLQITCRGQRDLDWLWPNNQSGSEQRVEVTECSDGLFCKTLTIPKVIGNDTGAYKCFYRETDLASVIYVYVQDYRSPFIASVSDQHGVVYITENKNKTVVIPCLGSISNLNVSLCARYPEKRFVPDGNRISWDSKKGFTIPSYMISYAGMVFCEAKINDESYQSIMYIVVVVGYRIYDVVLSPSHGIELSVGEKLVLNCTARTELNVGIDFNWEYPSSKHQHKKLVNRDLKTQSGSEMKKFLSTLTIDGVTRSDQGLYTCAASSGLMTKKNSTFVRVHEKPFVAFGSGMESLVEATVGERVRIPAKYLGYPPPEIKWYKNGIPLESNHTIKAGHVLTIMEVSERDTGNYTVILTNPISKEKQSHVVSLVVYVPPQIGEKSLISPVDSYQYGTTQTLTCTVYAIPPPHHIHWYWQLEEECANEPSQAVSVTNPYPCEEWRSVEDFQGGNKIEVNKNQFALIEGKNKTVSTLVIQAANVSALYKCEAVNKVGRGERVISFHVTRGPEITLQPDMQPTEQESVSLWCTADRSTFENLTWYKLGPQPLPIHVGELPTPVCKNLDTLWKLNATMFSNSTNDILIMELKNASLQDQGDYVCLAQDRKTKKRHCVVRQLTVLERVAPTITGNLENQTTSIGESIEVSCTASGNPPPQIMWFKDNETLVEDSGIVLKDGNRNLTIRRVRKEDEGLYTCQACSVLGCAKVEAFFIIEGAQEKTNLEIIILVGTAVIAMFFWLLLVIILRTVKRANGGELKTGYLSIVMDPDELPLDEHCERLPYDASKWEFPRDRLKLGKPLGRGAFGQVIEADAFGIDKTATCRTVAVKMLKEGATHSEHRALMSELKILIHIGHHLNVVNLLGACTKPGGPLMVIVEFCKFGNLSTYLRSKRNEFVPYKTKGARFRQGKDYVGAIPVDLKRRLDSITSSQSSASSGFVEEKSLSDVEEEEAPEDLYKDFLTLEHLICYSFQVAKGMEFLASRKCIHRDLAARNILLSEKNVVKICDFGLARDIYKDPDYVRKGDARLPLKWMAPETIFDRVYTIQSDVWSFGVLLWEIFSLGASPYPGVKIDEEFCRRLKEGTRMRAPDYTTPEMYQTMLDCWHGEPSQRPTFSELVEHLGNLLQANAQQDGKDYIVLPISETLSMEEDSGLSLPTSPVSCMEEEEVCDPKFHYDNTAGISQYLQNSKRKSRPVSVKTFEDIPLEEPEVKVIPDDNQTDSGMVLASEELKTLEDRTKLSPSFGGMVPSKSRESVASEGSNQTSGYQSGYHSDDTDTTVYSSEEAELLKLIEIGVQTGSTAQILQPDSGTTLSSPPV
T1 sequence (O14786 22-923): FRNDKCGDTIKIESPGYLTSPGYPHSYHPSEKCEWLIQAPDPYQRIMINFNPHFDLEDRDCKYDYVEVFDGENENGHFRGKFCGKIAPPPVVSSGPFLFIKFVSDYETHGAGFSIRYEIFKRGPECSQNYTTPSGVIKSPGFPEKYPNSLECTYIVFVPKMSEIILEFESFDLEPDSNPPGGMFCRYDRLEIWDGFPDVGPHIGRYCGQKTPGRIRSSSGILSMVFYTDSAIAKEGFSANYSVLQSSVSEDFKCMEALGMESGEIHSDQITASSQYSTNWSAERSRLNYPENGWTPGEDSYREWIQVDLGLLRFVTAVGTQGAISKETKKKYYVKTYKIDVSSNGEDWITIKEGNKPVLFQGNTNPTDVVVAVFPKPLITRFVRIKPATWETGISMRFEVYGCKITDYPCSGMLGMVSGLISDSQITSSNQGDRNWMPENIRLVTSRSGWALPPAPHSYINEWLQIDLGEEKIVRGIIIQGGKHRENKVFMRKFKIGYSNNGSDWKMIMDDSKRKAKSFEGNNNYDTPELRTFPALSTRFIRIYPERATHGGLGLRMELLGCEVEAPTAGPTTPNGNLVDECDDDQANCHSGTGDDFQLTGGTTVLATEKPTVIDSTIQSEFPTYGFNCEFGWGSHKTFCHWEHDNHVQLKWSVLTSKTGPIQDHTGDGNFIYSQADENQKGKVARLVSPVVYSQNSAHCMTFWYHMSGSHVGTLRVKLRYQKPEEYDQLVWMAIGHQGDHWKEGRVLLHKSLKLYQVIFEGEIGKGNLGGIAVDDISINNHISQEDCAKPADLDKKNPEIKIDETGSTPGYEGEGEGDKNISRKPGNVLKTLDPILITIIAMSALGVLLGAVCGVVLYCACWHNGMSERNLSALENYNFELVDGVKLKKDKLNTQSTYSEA
T2 sequence (P35968 20-1356): as the sequence (P35968 20-1356) above
Chain of VEGF165R (O14786 22-923): as the sequence (O14786 22-923) above

Consider “GST-Ex 7+8: GST fusion protein containing the peptide encoded by VEGF165 exons 7 and 8 (PCGPCSERRKHLFVQDPQTCKCSCKNTDSRCKARQLELNERTCRCDKPRR; cysteine pairing not given here; also: GST fusion protein, side of fusion not given here)”, for which, in the assay with VEGF165R on 231 cells (125I-VEGF165 5 ng/ml, increasing concentrations of fusion protein, FIG. 3B), the “inhibition of 125I-VEGF165 binding to 231 cells” value is on record as 97-98%. Besides, the “VEGF165 binding to 231 breast cancer cells (in words)” value in the assay with VEGF165R on 231 cells (cells express VEGF165R and not KDR/Flk-1) is on record as “inhibits”. The “inhibition of 125I-VEGF165 binding to PAE-KDR cells (in words)” value in assay [1] was “did not inhibit”. For the same substance, in the assay with KDR/Flk-1 [2], the “binding/cross-linking of 125I-VEGF165 to KDR/Flk-1 on HUVEC (in words)” value was “inhibits indirectly; also recorded: inhibited”. Besides, the “formation of 240-kDa 125I-VEGF121/KDR/Flk-1 cross-linked complexes on HUVEC (in words)” value in the assay with KDR/Flk-1 [3] is recorded as “significantly inhibited; also recorded: diminished binding”. Also, in the assay with VEGF165R, the “formation of 125I-VEGF165/VEGF165R cross-linked complexes on 231 cells (in words)” value is recorded as “markedly inhibited”. Also, the “direct binding to KDR/Flk-1 on HUVEC (in words)” value with KDR/Flk-1 [4] is “not and does not bind directly”. Besides, in the assay with KDR/Flk-1 [5], the “cross-linking of 125I-VEGF165 to KDR/Flk-1 on PAE-KDR cells (in words)” value is listed as “did not inhibit”.

The values above are taken from patent publication US8889620B2, “Pharmaceutical compositions comprising peptide antagonists of vascular endothelial growth factor” (Children's Medical Center Corporation, priority 1997, dated 2014).
